# Source: patent publication US20060074081A1 (Pfizer, published 2006)
# B1: Human progesterone receptor ligand binding domain (PR-LBD), polypeptide following thrombin cleavage of the GST fusion (receptor)
# chain: GSPGQDIQLIPPLINLLMSIEPDVIYAGHDNTKPDTSSSLLTSLNQLGERQLLSVVKWSKSLPGFRNLHIDDQITLIQYSWMSLMVFGLGWRSYKHVSGQMLYFAPDLILNEQRMKESSFYSLCLTMWQIPQEFVKLQVSQEEFLCMKVLLLLNTIPLEGLRSQTQFEEMRSSYIRELIKAIGLRQKGVVSSSQRFYQLTKLLDNLHDLVKQLHLYCLNTFIQSRALSVEFPEMMSEVIAAQLPKILAGMVKPLLFHKK
# notes: In the size-exclusion run and in the crystal each chain carried the small molecule tanaproget; also called human PR-LBD; PR-LBD (675-933)
# Target: the molecule itself
# Experiment: size-exclusion chromatography of the PR-LBD/tanaproget complex
protein,measurement,value
B1,binding result,binds
